# Results: patent US20250215403A1, “Compositions and Methods for Cardiac Tissue Regeneration” (Temple University - Of The Commonwealth System Of Higher …, priority 2022, published 2025)
# What was measured:
# [1] = Mouse MI model: echocardiography of cardiac function 28 days post-MI; assay type: in vivo
# Method: In vivo transfection of modRNA was done as described previously in a recent method paper (Magadum A., et al., Circulation. 2020, 141 (15): 1249-1265; Sultana N., et al., Mol Ther, 2017, 25 (6): 1306-1315) using sucrose citrate buffer containing 10 μl of sucrose in nuclease-free water (0.3 g/ml), 10 μl of citrate (0.1M pH-7; Sigma) mixed with 10 μl of different concentrations of modRNA in saline to a total volume of 30 μl. Immediately after LAD ligation, mice received an intra-myocardial injection of modRNA (100 μg) in total volume of 30 μL at 3 different sites (mid-anterior×2 places and apical anterior) in the peri-infarct area (Magadum A., et al., Circulation. 2020, 141 (15): 1249-1265; Magadum, A., et al., 2021, Advanced Science, 9:2004661). For in vitro transfection, RNAiMAX transfection reagent (Life Technologies) was used according to manufacturer's recommendation (Magadum A., et al., Circulation. 2020, 141 (15): 1249-1265; Sultana N., et al., Mol Ther, 2017, 25 (6): 1306-1315).
# (§1) All surgical and experimental procedures with mice were performed in accordance with protocols approved by Institutional Animal Care and Use Committees at Temple University Animal Care and Use Committee (IACUC). C57BL6 or CM-specific MADM mice (8-12-weeks-old) were anesthetized with isoflurane. MI was induced by permanent ligation of the LAD, as previously described (Garikipati, V. N. S., et al., 2019, Nature Communications, 10:4317). Briefly, the left thoracic region was shaved and sterilized. After intubation, the heart was exposed through a left thoracotomy. A suture was placed to ligate the LAD. The thoracotomy and skin were sutured closed in layers. Excess air was removed from the thoracic cavity, and the mouse was removed from ventilation when normal breathing was established. In order to determine the effect of modRNA on cardiovascular outcome after MI, modRNAs (100 μg/heart) were injected into the infarct zone immediately after LAD ligation (Magadum A., et al., Circulation. 2020, 141 (15): 1249-1265). For examination of heart histology, hearts were collected at the end of each study, quickly washed in PBS, weighed, and fixed in 4% PFA for cryo-sectioning and immunostainings. In all experiments, the surgeon was blinded to the treatment group. For assessment of heart histology, hearts were collected at the end of each study. The hearts were excised, briefly washed in PBS, perfused with perfusion buffer, weighed and fixed in 4% PFA at 4° C. overnight. The heart blocks were transverse sectioned at 6-8 μm using cryostat. The heart sections were further processed for histological evaluation using immunostaining (see below) or histological scar staining using Masson's trichrome staining kit (Sigma) according to standard procedures. Measuring the ratio of heart weight to body weight was done using a scale. This ratio was calculated as the heart tissue weight relative to the mouse total body weight in grams (g).
# Mice underwent surgery to ligate the left anterior descending coronary artery as reported previously, followed by intramyocardial administration of exosomes or EVs (1×10^9) from hiPSC cells and IMR-90 cells suspended in PBS into the left ventricular wall (border zone) at two different locations and at the heart apex at one location immediately after left anterior descending ligation (Yue, Y., et al., 2020, Circulation Research, 126:315-329). The saline group underwent the same surgery but received saline without exosomes. Tissue was harvested at 7- or 28-days post-MI for histological analysis.
# cardiomyocytes (CM) = assay: Mouse MI model: TUNEL staining of CM apoptosis; assay type: in vivo; details: vs Luc modRNA
# Method: as §1
# Mice hearts were harvested, weighed, and fixed in 4% PFA/PBS overnight on shaker and then washed with PBS for 1 hour and incubated in 30% sucrose/PBS at 4° C. for 12-18 hours. Hearts were then fixed in OCT and frozen at −80° C. (Magadum A., et al., Circulation. 2020, 141 (15): 1249-1265). Transverse heart sections (6-8 μm) were made using a cryostat. […] For immunostaining with wheat germ agglutinin (WGA) for CM size quantification, images were captured at 40× magnification, and ImageJ was used to determine the area of each cell. Quantitative analyses involved counting of multiple fields from 5-8 mouse hearts per group, and 3-4 sections/heart (˜50 cells per field assessed, for a total ˜250 cells per sample). […] BrdU positive CMs were counted in multiple fields from three independent samples per group and 3 sections/heart. […]
molecule,measurement,setting,value
"PSAT1 modRNA: modified mRNA with N1-methylpseudouridine, transcribed in vitro, encoding phosphoserine aminotransferase 1 (ORF SEQ ID NO: 1, RNA SEQ ID NO: 2) (nucleic acid, N1-methylpseudouridine) AUGGAAGCCACCAAGCAAGUGGUUAACUUUGGGCCCGGGCCUGCCAAGCUGCCACACUCGGUAUUGUUGGAGAUCCAGAAGCAGCUACUAGACUACAGAGGACUCGGCAUCAGUGUGCUCGAAAUGAGUCACAGGUCAUCAGAUUUUGCCAAGAUUAUUGGCAAUACAGAGAAUCUUGUGAGGGAAUUGCUAGCUGUUCCCAACAACUACAAGGUGAUCUUUGUACAAGGAGGUGGGUCUGGCCAGUUCAGUGCUGUCCCCUUAAAUCUGAUUGGCCUGAAAGCUGGAAGGAGUGCUGACUACGUGGUGACCGGAGCUUGGUCAGCUAAGGCUGCGGAAGAAGCCAAGAAGUUUGGAACGGUGAACAUUGUCCACCCUAAACUUGGAAGUUACACAAAAAUUCCAGACCCAAGCACCUGGAACCUCAACCCGGACGCCUCCUAUGUAUACUUCUGUGCAAACGAGACUGUGCACGGGGUGGAGUUUGACUUCGUACCUGACGUCAAGGGAGCGGUGCUGGUCUGUGACAUGUCCUCAAACUUCUUAUCCAGGCCGGUGGAUGUUUCCAAGUUUGGUGUGAUUUUCGCUGGUGCUCAGAAGAAUGUUGGCUCUGCCGGGGUGACGGUGGUGAUUGUCCGGGAUGACCUGCUGGGGUUCUCGCUCAGAGAGUGCCCAUCAGUCCUUGACUACAAAGUGCAGGCUGGGAACAACUCUUUGUAUAACACACCUCCGUGCUUCAGCAUCUACGUCAUGGGCAUGGUCCUGGAAUGGAUCAAGAACAACGGCGGGGCCGCAGCCAUGGAGAAGCUCAGCUCCAUCAAAUCCCAAAUGAUUUAUGAGAUCAUUGAUAAUUCUCAAGGAUUUUAUGUAUGCCCAGUGGAGCGCCAGAAUAGAAGCAGGAUGAACAUCCCAUUUCGCAUUGGCAACGCCAAAGGAGACGAAGCUUUGGAAAAGCGGUUUCUUGACAAGGCGGUAGAACUCAACAUGAUCUCCUUGAAGGGGCACAGGUCAGUGGGAGGCAUUCGUGCCUCUCUGUAUAACGCUGUCACAACCGAAGACGUUGAGAAGCUGGCGGCCUUCAUGAAGAAUUUCUUGGAGAUGCAUCAGCUGUGA",LV end-diastolic posterior wall thickness,[1],significantly increased
same,LV end-systolic posterior wall thickness,[1],significantly increased
same,Fractional Shortening (% FS),[1]; compared to Luc,significantly improved
same,LVIDd (left ventricular internal diameter end-diastole),[1]; compared to control,Improvements
same,LVIDs (left ventricular internal diameter end-systole),[1]; compared to control,Improvements
same,Ejection Fraction (% EF),"[1]; myocardial delivery, compared to Luc",significantly improved
same,TUNEL+ CMs,cardiomyocytes (CM); 2 days post-MI,significantly decreased
same,TUNEL+ CMs,cardiomyocytes (CM); 7 days post-MI,significantly decreased
